# Data as given in US10442868B2, “Treating hepatitis B virus infections by administering receptor associated protein (RAP)” (Rhode Island Hospital, A Lifespan-Partner, priority 2013, dated 2019).
# B1: Pseudomonas exotoxin (protein)
# chain: AEEAFDLWNECAKACVLDLKDGVRSSRMSVDPAIADTNGQGVLHYSMVLEGGNDALKLAIDNALSITSDGLTIRLEGGVEPNKPVRYSYTRQARGSWSLNWLVPIGHEKPSNIKVFIHELNAGNQLSHMSPIYTIEMGDELLAKLARDATFFVRAHESNEMQPTLAISHAGVSVVMAQAQPRREKRWSEWASGKVLCLLDPLDGVYNYLAQQRCNLDDTWEGKIYRVLAGNPAKHDLDIKPTVISHRLHFPEGGSLAALTAHQACHLPLETFTRHRQPRGWEQLEQCGYPVQRLVALYLAARLSWNQVDQVIRNALASPGSGGDLGEAIREQPEQARLALTLAAAESERFVRQGTGNDEAGAASADVVSLTCPVAAGECAGPADSGDALLERNYPTGAEFLGDGGDISFSTRGTQNWTVERLLQAHRQLEERGYVFVGYHGTFLEAAQSIVFGGVRARSQDLDAIWRGFYIAGDPALAYGYAQDQEPDARGRIRNGALLRVYVPRSSLPGFYRTGLTLAAPEAAGEVERLIGHPLPLRLDAITGPEEEGGRLETILGWPLAERTVVIPSAIPTDPRNVGGDLDPSSIPDKEQAISALPDYASQPGKPPREDLK
# B2: GST-RAP: GST fusion form of RAP tested in HepaRG HBV infection (protein)
# chain: YSREKNQPKPSPKRESGEEFRMEKLNQLWEKAQRLHLPPVRLAELHADLKIQERDELAWKKLKLDGLDEDGEKEARLIRNLNVILAKYGLDGKKDARQVTSNSLSGTQEDGLDDPRLEKLWHKAKTSGKFSGEELDKLWREFLHHKEKVHEYNVLLETLSRTEEIHENVISPSDLSDIKGSVLHSRHTELKEKLRSINQGLDRLRRVSHQGYSTEAEFEEPRVIDLWDLAQSANLTDKELEAFREELKHFEAKIEKHNHYQKQLEIAHEKLRHAESVGDGERVSRSREKHALLEGRTKELGYTVKKHLQDLSGRISRARHNEL
# modifications: left off: a dimerising Fc or GST
# notes: GST fusion form of RAP tested in HepaRG HBV infection
# B3: RAP: Receptor associated protein, chaperone binding LRP and other LDLR family members; universal inhibitor of the LDLR protein family (SEQ ID NO:6) (protein)
# chain: MAPRRVRSFLRGLPALLLLLLFLGPWPAASHGGKYSREKNQPKPSPKRESGEEFRMEKLNQLWEKAQRLHLPPVRLAELHADLKIQERDELAWKKLKLDGLDEDGEKEARLIRNLNVILAKYGLDGKKDARQVTSNSLSGTQEDGLDDPRLEKLWHKAKTSGKFSGEELDKLWREFLHHKEKVHEYNVLLETLSRTEEIHENVISPSDLSDIKGSVLHSRHTELKEKLRSINQGLDRLRRVSHQGYSTEAEFEEPRVIDLWDLAQSANLTDKELEAFREELKHFEAKIEKHNHYQKQLEIAHEKLRHAESVGDGERVSRSREKHALLEGRTKELGYTVKKHLQDLSGRISRARHNEL
# modifications: human receptor associated protein (RAP)
# Experiments:
# [1] = tested on: differentiated HepaRG cells; experiment: Killing of differentiated HepaRG cells by LRP-utilizing toxin, trypan blue staining; type: cell-based, human; conditions: 500 ng/ml, 37° C. overnight, low dose
# Method: Hepatocytes are polarized. LRP is distributed at the basolateral side rather than apical side of hepatocytes (Marzolo et al., Traffic 4:273-88, 2003) consistent with HBV infection from the bloodstream. It was recently reported that HBV preferentially infects hepatocytes near the edge of hepatocyte islands (Schulze et al., Hepatology 55:373-83, 2012). […] Differentiated HepaRG cells were untreated (left panel) or incubated with pseudomonas exotoxin A (500 ng/ml) at 37° C. overnight (right panel), and stained with 0.04% trypan blue to reveal dead (blue) cells under microscopy. The dead cells were mainly located at the periphery of hepatocyte islands, which are also most susceptible to HBV infection.
# HBV = HBV infection of differentiated HepaRG cells with RAP or GST-RAP, secreted HBsAg by ELISA; type: cell-based; conditions: overnight with HBV inoculum and increasing concentrations, HBsAg measured 10 days later
# Method: Differentiated HepaRG cells (4×10^4), which are susceptible to HBV infection (Gripon et al., Proc Natl Acad Sci USA 99:15655-60, 2002), were incubated overnight with HBV inoculum in the presence or absence of increasing concentrations of RAP or GST-RAP, and washed extensively to remove unbound HBV virions and HBsAg. Medium was changed every 2-3 days. HBsAg level in culture supernatant was measured 10 days later (at this point there was no more residual HBsAg from the inoculum, and signals detected reflect newly synthesized and secreted proteins). The level of HBsAg secreted into the culture supernatant was determined by an ELISA assay using a commercially available kit (e.g., Novus Biologicals, NEO BioLab, Cusabio Biotech Co., Ltd.). Briefly, culture medium was added to wells containing capture antibody (anti-HBsAg), followed by incubation at 37° C. for 30 min. After washing with provided washing buffer, conjugate (anti-HBsAg conjugated with HRP) was added followed by incubation at 37° C. for 30 min.
Molecule,cell killing (trypan blue dead cells) [1],HBsAg secretion to culture supernatant (HBV infectivity) (HBV)
B1,selectively killed cells in the periphery of hepatocyte islands,
B2,,dose-dependent reduction of HBsAg secretion
B3,,dose-dependent reduction of HBsAg secretion
